T1: full-length CsoS2 (H. neapolitanus) (Halothiobacillus neapolitanus, UniProt O85041 1-869)
T1 sequence (looked up): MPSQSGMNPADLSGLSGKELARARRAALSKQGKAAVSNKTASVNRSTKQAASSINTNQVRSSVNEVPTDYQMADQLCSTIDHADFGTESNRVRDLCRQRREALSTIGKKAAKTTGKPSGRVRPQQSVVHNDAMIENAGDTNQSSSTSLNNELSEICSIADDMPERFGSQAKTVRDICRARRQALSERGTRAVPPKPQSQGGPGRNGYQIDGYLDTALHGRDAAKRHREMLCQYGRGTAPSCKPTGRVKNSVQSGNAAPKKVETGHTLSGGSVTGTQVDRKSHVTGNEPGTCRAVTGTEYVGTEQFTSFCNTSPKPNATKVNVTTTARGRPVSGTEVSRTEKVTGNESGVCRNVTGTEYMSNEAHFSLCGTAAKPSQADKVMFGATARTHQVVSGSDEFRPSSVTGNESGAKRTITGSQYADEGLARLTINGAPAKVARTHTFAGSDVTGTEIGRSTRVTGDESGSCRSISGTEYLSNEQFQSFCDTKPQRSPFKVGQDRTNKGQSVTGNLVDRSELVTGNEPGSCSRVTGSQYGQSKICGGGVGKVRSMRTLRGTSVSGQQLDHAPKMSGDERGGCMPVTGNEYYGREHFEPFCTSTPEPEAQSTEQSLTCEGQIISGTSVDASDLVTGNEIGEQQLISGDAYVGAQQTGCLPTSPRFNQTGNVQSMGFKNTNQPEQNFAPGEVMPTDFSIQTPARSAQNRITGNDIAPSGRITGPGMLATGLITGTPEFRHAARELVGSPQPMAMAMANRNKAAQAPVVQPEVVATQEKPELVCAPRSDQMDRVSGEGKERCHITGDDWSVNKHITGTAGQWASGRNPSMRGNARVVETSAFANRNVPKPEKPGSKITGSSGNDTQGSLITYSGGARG

B1: [N1]-GFP (single CsoS2 N-peptide repeat N1 fused to GFP) (domain or fragment)
chain: PSQSGMNPADLSGLSGKELARARRAALSKQGKAAVSNKTASVNRSTKQAASSINTNQVRSSVNEVPTDYQMADQLCSTIDHADFGTESNRV
modifications: CsoS2 part of Supplementary Table 1 construct; His tag, TEV site, linker, sfGFP and StrepII left out
B2: wild-type H. neapolitanus Rubisco (CbbL8S8) (complex, Halothiobacillus neapolitanus)
chain 1: MAVKKYSAGVKEYRQTYWMPEYTPLDSDILACFKITPQPGVDREEAAAAVAAESSTGTWTTVWTDLLTDMDYYKGRAYRIEDVPGDDAAFYAFIAYPIDLFEEGSVVNVFTSLVGNVFGFKAVRGLRLEDVRFPLAYVKTCGGPPHGIQVERDKMNKYGRPLLGCTIKPKLGLSAKNYGRAVYECLRGGLDFTKDDENINSQPFMRWRDRFLFVQDATETAEAQTGERKGHYLNVTAPTPEEMYKRAEFAKEIGAPIIMHDYITGGFTANTGLAKWCQDNGVLLHIHRAMHAVIDRNPNHGIHFRVLTKILRLSGGDHLHTGTVVGKLEGDRASTLGWIDLLRESFIPEDRSRGIFFDQDWGSMPGVFAVASGGIHVWHMPALVNIFGDDSVLQFGGGTLGHPWGNAAGAAANRVALEACVEARNQGRDIEKEGKEILTAAAQHSPELKIAMETWKEIKFEFDTVDKLDTQNR
chain 2: MAEMQDYKQSLKYETFSYLPPMNAERIRAQIKYAIAQGWSPGIEHVEVKNSMNQYWYMWKLPFFGEQNVDNVLAEIEACRSAYPTHQVKLVAYDNYAQSLGLAFVVYRGN
B3: CbbL (Rubisco large subunit, H. neapolitanus) (natural protein, Halothiobacillus neapolitanus)
chain: B2 chain 1

The target in data set [1] is N*-polyPro (N* consensus peptide on a polyproline II helix). In words: BLI.
The target of data set [2] is B2. In words: MST.
The target in data set [3] is T1, full-length CsoS2 (H. neapolitanus). In words: native gel or EMSA.
The data set “crystal structure” concerns the molecule itself. In words: crystal structure.

Molecule “wild-type H. neapolitanus Rubisco (CbbL8S8) (from UniProt O85040 1-473; P45686 1-110) (complex)” showed a Kd in data set [1] of 0.1 µM.
As to B1, the Kd in data set [2] is more than 1000 µM.
Regarding B2, the binding result in data set [3] was “binds”.
As for B3, in the data set “crystal structure”, the binding result is recorded as “binds”.
